Our source for the EC50 values is patent publication CN115010810A (NANJING SANHOME PHARMACEUTICAL CO LTD, dated 2022).

Assay [1] addresses T1, 人CTLA-4-His蛋白 (human CTLA-4 extracellular domain fused to His tag) (human, UniProt P16410 36-161).
T1 construct: also called hCTLA-4-His
T1 sequence: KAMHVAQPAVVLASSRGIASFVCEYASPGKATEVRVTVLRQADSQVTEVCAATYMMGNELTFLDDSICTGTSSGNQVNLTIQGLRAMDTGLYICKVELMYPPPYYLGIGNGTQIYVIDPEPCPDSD
In words: ELISA, human CTLA-4-His coated.

The target of assay [2] is T2, 食蟹猴PD-1-His (SB, Cat.No.90311-C08H) (cynomolgus monkey).
T2 construct: Purchased protein; also called cynomolgus PD-1-His
Nature of the assay: ELISA, cynomolgus PD-1-His coated. (In general: ELISA stands for enzyme-linked immunosorbent assay.)

Assay [3] addresses 人PD-1-His蛋白 (自产; human PD-1 extracellular domain with His tag) (human, UniProt Q15116 25-170). Nature of the assay: ELISA, human PD-1-His coated.
In assay [4] the target is T3, PD-1 on the surface of hPD-1-CHO-K1 cells (human, UniProt Q15116 25-288).
T3 construct: also called 细胞表面PD-1; CHO-K1-PD-1
In words: FACS on hPD-1-CHO-K1 cells.

人PD-1-His蛋白 (自产; human PD-1 extracellular domain with His tag), sequence (Q15116 25-170 limits assumed): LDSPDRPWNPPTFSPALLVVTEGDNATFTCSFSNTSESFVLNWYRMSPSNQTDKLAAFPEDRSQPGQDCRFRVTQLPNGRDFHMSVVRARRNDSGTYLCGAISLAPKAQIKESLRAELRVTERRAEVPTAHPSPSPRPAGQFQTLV
T3 sequence (Q15116 25-288 limits assumed): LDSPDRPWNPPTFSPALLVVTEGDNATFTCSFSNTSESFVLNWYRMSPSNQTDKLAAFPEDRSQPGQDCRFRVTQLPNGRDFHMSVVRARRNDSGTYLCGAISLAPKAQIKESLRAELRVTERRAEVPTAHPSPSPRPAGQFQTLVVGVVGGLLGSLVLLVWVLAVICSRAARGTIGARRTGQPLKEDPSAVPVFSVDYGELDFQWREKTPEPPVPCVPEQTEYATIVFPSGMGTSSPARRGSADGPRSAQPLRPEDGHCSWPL

B1: HuC92-11 (antibody, V domains shown)
VH: QVQLVESGGGVVQPGRSLRLSCAASGFTFSNYAMSWVRQAPGKGLEWVAEISYSGTYSYHSDTVTGRFTISRDNSKNTLYLQMSSLRAEDTAVYYCTRRDYDNEMDYWGQGTLVTVSS
VL: DIQMTQSPSSLSASVGDRVTITCRTSQVITNYLNWYQQKPGKAPKLLIYYTSRLHSGVPSRFSGSGSGTDYTLTISSLQPEDFATYYCQQFGKRPPTFGGGTKVEIK
notes: also called SHS010-HuC92-11; 人源化抗CTLA-4抗体HuC92-11
For orientation: EC50 means the concentration needed to bring the measured effect to its halfway point. A high value points to a need for much substance. For B1, a half-maximal response in assay [1] (EC50) required 0.01 nM.

B2: SHS006-HuP01-22 (antibody, V domains shown)
VH: QVQLVQSGAEVKKPGASVKVSCKASGYTFTWYHMSWVRQAPGQGLEYMGYINTRSGDTYYNEKFKGRVTMTTDTSTSTAYMELRSLRSDDTAVYYCARSGYGGSDYWGQGTLVTVSS
VL: DIVMTQSPDSLAVSLGERATINCKSSQNLLYSENKKNSLAWYQQKPGQPPKLLISWASTREFGVPDRFSGSGSGTDFTLTISSLQAEDVAVYYCEQYYDILPTFGGGTKVEIK
notes: also called SHS006-P01-22; 人源化抗PD-1抗体SHS006-HuP01-22
Regarding B2, the EC50 was 0.088 nM in assay [2], 0.18 nM in assay [3] and 0.11 nM in assay [4].
